Laboratory results from PMC6053526, “Arabidopsis WRKY50 and TGA Transcription Factors Synergistically Activate Expression of PR1”.

Tests used:
GST-AtWRKY50-C [1] = target: T1, GST-AtWRKY50-C (Arabidopsis thaliana, UniProt Q8VWQ5 86-173); assay: EMSA; 5x buffer (3 uL in 14 uL): 20% glycerol, 5 mM MgCl2, 2.5 mM EDTA, 2.5 mM DTT, 250 mM NaCl, 50 mM Tris-HCl pH 7.5, 0.25 mg/ml poly(dI-dC); 0.5 ug protein; 10 min RT, then 60 min on ice with probe; gel at 4 C; conditions: protein: recombinant, tags: GST (N-term), label: 32P
T1 sequence (Q8VWQ5 86-173): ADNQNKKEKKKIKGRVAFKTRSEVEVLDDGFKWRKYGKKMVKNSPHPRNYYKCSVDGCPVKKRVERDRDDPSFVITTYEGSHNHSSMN

TGA2-His [2] = target: T2, TGA2-His (Arabidopsis thaliana, UniProt P43273 1-330); assay: EMSA; shift increased by full-length AtWRKY50; 5x buffer (3 uL in 14 uL): 20% glycerol, 5 mM MgCl2, 2.5 mM EDTA, 2.5 mM DTT, 250 mM NaCl, 50 mM Tris-HCl pH 7.5, 0.25 mg/ml poly(dI-dC); 0.5 ug protein; 10 min RT, then 60 min on ice with probe; gel at 4 C; conditions: protein: recombinant; tags: His; chain copies: 2; label: 32P; blunt
T2 sequence: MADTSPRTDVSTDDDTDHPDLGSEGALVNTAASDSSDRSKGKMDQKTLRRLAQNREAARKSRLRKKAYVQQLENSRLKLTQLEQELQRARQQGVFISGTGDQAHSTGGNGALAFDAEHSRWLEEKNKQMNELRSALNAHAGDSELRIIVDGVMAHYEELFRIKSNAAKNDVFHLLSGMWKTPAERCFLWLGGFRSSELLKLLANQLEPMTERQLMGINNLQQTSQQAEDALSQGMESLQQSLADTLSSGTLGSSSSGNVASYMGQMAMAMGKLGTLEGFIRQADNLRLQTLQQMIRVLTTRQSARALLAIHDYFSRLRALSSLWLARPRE

GST-AtWRKY50-C [3] = target: T1, GST-AtWRKY50-C; assay: EMSA; as wild type D; 5x buffer (3 uL in 14 uL): 20% glycerol, 5 mM MgCl2, 2.5 mM EDTA, 2.5 mM DTT, 250 mM NaCl, 50 mM Tris-HCl pH 7.5, 0.25 mg/ml poly(dI-dC); 0.5 ug protein; 10 min RT, then 60 min on ice with probe; gel at 4 C; conditions: protein: recombinant; tags: GST (N-term); label: 32P; 5' overhang 3 nt (GGG) both ends
GST-AtWRKY50-C [4] = target: T1, GST-AtWRKY50-C; assay: EMSA; enhanced vs fragment A; 5x buffer (3 uL in 14 uL): 20% glycerol, 5 mM MgCl2, 2.5 mM EDTA, 2.5 mM DTT, 250 mM NaCl, 50 mM Tris-HCl pH 7.5, 0.25 mg/ml poly(dI-dC); 0.5 ug protein; 10 min RT, then 60 min on ice with probe; gel at 4 C; conditions: protein: recombinant; tags: GST (N-term); label: 32P; 5' overhang 3 nt (GGG) both ends
TGA2-His [5] = target: T2, TGA2-His; assay: EMSA; 5x buffer (3 uL in 14 uL): 20% glycerol, 5 mM MgCl2, 2.5 mM EDTA, 2.5 mM DTT, 250 mM NaCl, 50 mM Tris-HCl pH 7.5, 0.25 mg/ml poly(dI-dC); 0.5 ug protein; 10 min RT, then 60 min on ice with probe; gel at 4 C; conditions: protein: recombinant; tags: His; chain copies: 2; label: 32P; blunt

B1: Am2 (dsDNA)
DNA 1: GGGGGTGATCTATTGACTGCCTCTCTACGTCACTA
DNA 2: GGGTAGTGACGTAGAGAGGCAGTCAATAGATCACC
binding result (GST-AtWRKY50-C [1]; 5' overhang 3 nt (GGG) both ends): no binding

B2: fragment B (dsDNA)
DNA 1: TTTCTCTACGTCACTATTTTACTTACGTCATA
DNA 2: TATGACGTAAGTAAAATAGTGACGTAGAGAAA
binding result (TGA2-His [2]): binds

B3: Dm2 (dsDNA)
DNA 1: GGGGATGTGGCGGCATATATTCCCCAGGACTTTTC
DNA 2: GGGGAAAAGTCCTGGGGAATATATGCCGCCACATC
binding result (GST-AtWRKY50-C [3]): binds

B4: fragment D (dsDNA)
DNA 1: GATGTGGCGGCATATATTCTTCAGGACTTTTC
DNA 2: GAAAAGTCCTGAAGAATATATGCCGCCACATC
binding result (GST-AtWRKY50-C [1]; blunt): binds

B5: Am1 (dsDNA)
DNA 1: GGGGGTGATCTATTGACTTTTCTCTACGTCACTAT
DNA 2: GGGATAGTGACGTAGAGAAAAGTCAATAGATCACC
binding result (GST-AtWRKY50-C [4]): binds

B6: fragment A (dsDNA)
DNA 1: GGTGATCTATTGACTGTTTCTCTACGTCACTA
DNA 2: TAGTGACGTAGAGAAACAGTCAATAGATCACC
binding result (TGA2-His [5]): no binding | binding result (GST-AtWRKY50-C [1]; blunt): binds

B7: fragment C (dsDNA)
DNA 1: TTTTACTTACGTCATAGATGTGGCGGCATATA
DNA 2: TATATGCCGCCACATCTATGACGTAAGTAAAA
binding result (TGA2-His [2]): binds
